Results: paper PMC4411300, “Reconstitution and structure of a bacterial Pnkp1–Rnl–Hen1 RNA repair complex” (Nature Communications, 2015)

What was measured:
[1] = target: Capnocytophaga gingivalis Pnkp1 (Capnocytophaga gingivalis); assay: SEC; purified proteins analysed singly, or two proteins combined in equimolar and incubated at 4 °C for an hour before size-exclusion chromatography
[2] = target: Hen1 in the Pnkp1–Rnl–Hen1 heterohexamer (CgiHen1) (Capnocytophaga gingivalis, UniProt Z9ZGS5E134); assay: X-ray crystal structure, […] Å, co-purified ligand; format: binding; conditions: methyltransferase active site of Hen1; retained from E. coli expression, not added; weak density, low occupancy

## Capnocytophaga gingivalis Pnkp1 (enzyme)
[1]
  stoichiometry N: 2

## Nc1ncnc2c1ncn2[C@@H]1O[C@H](CSCC[C@H](N)C(=O)O)[C@@H](O)[C@H]1O [SAH]
[2]
  X-ray crystal structure, 3.4 Å, co-purified ligand: SAH was modelled in the methyltransferase active site of Hen1-b
